One substance from publication PMC11467669 can be followed below.

This assay addresses full-length USP8 (a.a. 7-1110) phosphorylated at S718 by AMPK (human) (UniProt P40818). The assay can be described thus: SEC-MALLS.

Chain of full-length USP8 (a.a. 7-1110) phosphorylated at S718 by AMPK (human) (P40818 7-1110): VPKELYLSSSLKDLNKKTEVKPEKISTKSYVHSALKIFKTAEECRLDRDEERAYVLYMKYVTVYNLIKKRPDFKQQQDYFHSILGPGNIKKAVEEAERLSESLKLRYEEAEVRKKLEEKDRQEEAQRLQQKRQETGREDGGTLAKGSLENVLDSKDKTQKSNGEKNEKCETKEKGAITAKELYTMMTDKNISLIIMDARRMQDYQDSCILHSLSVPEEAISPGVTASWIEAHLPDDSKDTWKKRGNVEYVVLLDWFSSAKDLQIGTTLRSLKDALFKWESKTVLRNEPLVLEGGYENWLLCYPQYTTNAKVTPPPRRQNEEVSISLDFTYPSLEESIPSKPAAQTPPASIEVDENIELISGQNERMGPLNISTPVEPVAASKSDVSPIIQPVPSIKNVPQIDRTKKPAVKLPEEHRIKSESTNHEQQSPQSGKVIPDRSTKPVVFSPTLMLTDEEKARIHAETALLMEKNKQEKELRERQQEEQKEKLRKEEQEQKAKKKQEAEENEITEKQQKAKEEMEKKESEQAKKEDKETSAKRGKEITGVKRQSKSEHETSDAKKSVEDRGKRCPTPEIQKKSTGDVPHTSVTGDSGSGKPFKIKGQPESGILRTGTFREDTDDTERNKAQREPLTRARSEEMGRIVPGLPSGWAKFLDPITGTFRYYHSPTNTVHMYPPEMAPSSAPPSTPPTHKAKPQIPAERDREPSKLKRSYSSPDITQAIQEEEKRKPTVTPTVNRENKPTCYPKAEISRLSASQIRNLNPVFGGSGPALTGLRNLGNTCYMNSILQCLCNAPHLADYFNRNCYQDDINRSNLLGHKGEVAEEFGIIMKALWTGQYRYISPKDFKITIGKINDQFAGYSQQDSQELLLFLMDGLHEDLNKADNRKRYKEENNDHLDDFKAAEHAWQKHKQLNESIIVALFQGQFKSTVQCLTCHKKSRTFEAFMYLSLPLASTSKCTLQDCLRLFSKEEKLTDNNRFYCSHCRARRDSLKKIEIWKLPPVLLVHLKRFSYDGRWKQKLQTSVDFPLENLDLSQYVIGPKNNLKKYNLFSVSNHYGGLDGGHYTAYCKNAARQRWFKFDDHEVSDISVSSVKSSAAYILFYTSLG

In the case of “14-3-3γ (from UniProt P61981 1-247) (natural protein)”, the stoichiometry N (14-3-3γ dimer per USP8) amounted to 1.
